From the domain aggregation screens of Martell et al. (2025)

Assay: soluble fraction after stress (log2 fold change); higher = more stays soluble; pooled small domains, quantitative proteomics
Conditions: stress: 50 degC
In short: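 Each library was heated to 50°C as a stress step. The libraries, made up of small protein domains, were pooled and analysed at high throughput by quantitative proteomics. The reported value is the base-two logarithm of the fold change in each protein's soluble amount after stress, taken as a measure of aggregation propensity. The higher the value, the more protein stays in solution.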

Row | Sequence | soluble fraction (log2)
1 | HMNPKTELMVYLKKRDEWVASQILSDVLQVSTRTIRKFVKEINMDYQTENVILSSSKGYKLNQNLLSSL | -1.2
2 | HMNPLPALLRYFRQKAGLTQQDVAAALSISRSGYANYEEGRNIPNIEQAIKLSELLNHDFLYAYTLSS | -1.99
3 | HMNPNYIKKLREKNQLTQEYLAAQIGVSRPTYAQIEQGQRGLTVTEAKKMADIFSLALDDFLAEKN | 0.0013
4 | HMNPSIALHDWLQSSEFKGSINLFAAALGMNPRTVEAWVYGRSTPSRRFWAKLYQITNLSRFRL | -0.836
5 | HMNPYLWQRVRLLFSNVGVINNSATVDLVFSAPKGVLTEDLANNFSAALVKKGKEELGLDDIKITISVIPN | -2.94
6 | HMNQADNFNSLTKREKDVLLLVTQGESNKSIADKLVLSEVTVKSHLNSIFKKLNVTNRTQAVLVAMQMNLV | 0.03
7 | HMNQAIIVPDVKGLPLEEATTFFENNDLRYTVIDSVYTKDVPPGAIYEMVPGAGSKVKEGRIIFVTLNAR | -0.314
8 | HMNQASLTYSEFIANVESKAITRVTISGDTISGILADGKPFQTIYPMADLELLPILRRSGVDINVKEVQ | -0.117
9 | HMNQEIELLLREPDFTSAARLAMAINERFTNSARAIDPTSVKVRMPEGLDQASVDFVARLEDIEMSPDT | -0.0281
10 | HMNQEQQSAVMSALKATLPDLEAALEARQFKESKQLLKTAQNQFQQLDGRNRRGFQARIQLLAGQFRELS | -0.227
11 | HMNQIDDADRKRVVDEVAGQFSSMSLTEMRSDREKLLSRIIPQVQTTLNRLGLQTIDVEGIAREVIARVG | 0.159
12 | HMNQIFAPMPGLVLEVKLSEGDVVAEGESAIILEAMKMENIIKSPINGIVKKVHVKKGQTIEKNTLIISFK | -1.15
13 | HMNQLSYTERRVLQVIEGGTTKTGEIEQALAAKMSRPTVHRALDALVGANRIHRLARGEYALGPAP | -0.147
14 | HMNQRQKQLLSILEQQGDWMKGKALATLLAVSDRTIRSDIEKINREVEGSILSHPHKGYLLSVENRQIAET | 0.256
15 | HMNQSKYQTIADELKSKILSGEYPENTTIPPELQLQKDYQVSRHTIRQAIALLANEGFLRKEKGSGTYVDV | 0.0512
16 | HMNQTTYTVLYSGMDPADTGKVLTALNEMGVDARTQGEDTVLVPADRADEIRLELAAQGYPTS | 0.0864
17 | HMNQYIFVLNEKGARITSFVDNTIPKEELIALAKQDYPNAADYIYSADGDSMLDEFMRGKLYVNGQFVAA | -0.69
18 | HMNREIVVYITGAVDNPGLYRLPLDSRLDDVLKLAVLSTNADREVLNPAQKLKDGQKIVVPYIVE | -0.111
19 | HMNRGITVIVNNEEIKMKEKAQYVVVDIFDYIDFDLTVPKGSINITLNGENTPYTASIKDGDVIEVFW | -0.266
20 | HMNRIARRELMEQLFADNKITTQEQLQQLLRAEGVEVTQATISRDMRILNIVKVSDQNGNTYYKQMK | -0.15
21 | HMNRIEMTEPIIIKDLSRETGIPWVAIQKRLAQDGIMANINTTIEAEKAQLIAVDYGIELAVV | 0.0679
22 | HMNRIGERIKRKRELRNLNLGELAEKVGISASALSQIEKSKSFPSVITLKSIAEQLRTTVGELIGEN | 0.0607
23 | HMNRIKIYPTPGSKVLSIENINFSLIHDFKILDIFGREVKNFTVSSEKNTKMLVDTSKLSDGLYFIFFNTF | -0.58
24 | HMNRLEFLQGLKAELEGRVPHSIIQENLRYYDSYISDEAAKGQSEEDVVESLGGPRIIARTIVDAA | 0.134
25 | HMNRNEFMERLEYLLSDIPQEEKADAIAYYRDYLEEAGDDAGKAIQDFGSPERIAAMIRSELAG | -0.0703

Row | Sequence | soluble fraction (log2)
26 | HMNRQTGTVKWFNDAKGFGFITPESGPDLFVHFRSIQGAGFKSLQEGQRVTFVAVQGQKGMQADQVQA | -0.762
27 | HMNRTKQIYNELLFRLDQGVYPPESKFPSESQLADEFSVSKVTMNKIVSMLASSGRLSRGVRGAGTFVSSP | -0.775
28 | HMNRYPIQTEVHAFNDDIIKEAINFEMSRGGQIFFVNNRIPQLYELENTIHRLVPDARVVIGHGQMP | -0.188
29 | HMNSFKIYPNPSSREVVRFNQAQDVKVYDTLGKLILSAKNTSAIDTKSFNTGIYFIKTANGLTKKLIV | -0.695
30 | HMNSGFEVFREVVNQGSFIGAANALGISAPAVSKQIKLLENRLGLLLLYRTTRNVTLTDIGKQLFDTLDNS | -1.97
31 | HMNSKKRQAILESLRSVTDHPTAEMIYNRLKPEYPDLSLGTVYRNLAMFLEEGQVISVGTVDGQERYDAR | -0.306
32 | HMNSKSFIFHIEDEEGIRLDVFLADNLPDVSRSYVQKLIDEEHVKVNGQSAKSRLKTVSGMEITVDVPAPK | -0.321
33 | HMNSLGYSDFVVDVQNERVASVVIEGLIINGERRDGTKFRTVLPTIGDQRLMDDLINHNVKVLARE | 0.236
34 | HMNSLTVPDITNRTLAEASQVLLDMGLTPIPDAVAKDGVGDDVVYAQSPPPNVGAREGDVVTITYNPA | 0.156
35 | HMNSNISYSEFLSQVEKGTINSVEITGNSIKGIYADGGEFITFSPGDPGLIDKLQRSDIEILATPPA | -0.104
36 | HMNSPSKVIDISQLRKGMFVQLDLGWMSHPFAVGSFKVSTDEQIQTLRGLGLSEVRYIPEKSDPA | -0.514
37 | HMNSQSGKGGVGYILETKYGLNLPPKMREAMGYAAKGVSDHLHKELHPDEIFDLFKKTFENVGQPYS | -0.0272
38 | HMNSSLLGKRIKSLREDHDLTQKELSLMIGLTPKMISFYENNQRTPPLDILLKLAKIFEVSVDYLIGYA | -0.551
39 | HMNSTRAPYLLDFEEDAAIREARRAGLVPRIARQPSGEPVGRVILQSHDYDYPMKRGDTILITISSG | -0.737
40 | HMNSTSGIAGVGYWINQYRKKKGMSPVDKKSPLVRRVYDWVQEQYDEGRITIISDAELTRQTELAMEA | -0.771
41 | HMNSVAASLREISIKVSGTEDADKVSRLQELSQMPKLDASGIAEANTLLEQLRAKYGDLGLSVDTARGRIV | 0.284
42 | HMNSVSIAPEMLNWVIAHIQMNSLPKQIVEHLTAWISGQKEPTFNQIEKVSRATGIPLGYFFLEQPPKE | -2.03
43 | HMNSYKGELLVDDKNIRLDLYLFNQFNFFSRTKIKNYILKGNVLVNNNKTSPSYILKGSEKIYYDFSVS | -1.2
44 | HMNTEVDKVLLRSGEAYFGEVLLRNDELVMMKTQDGARFQFPVSEIKSIEKVSVADALRHINS | 0.0758
45 | HMNTGFPIILETSDAANLTVGAPIMYRGVEVGKIRNMELNSLGDRVLIHILIGHKYQHLVRQNSEFWFSS | -4.54
46 | HMNTKDRIKQLAAQRKITIAELERKLHIANGTIGKWDKQNPSIEPLKKLADYFGVTTDYLLGRT | 0.162
47 | HMNTKLKPLYLLDIFREMTDERHRMTVPELLEELQRRGITAERKGIYRDIDALIQYGADIKHTGTGYYLAR | -0.561
48 | HMNTKLSYSDLIEKIEAGQVEKVELDAGGSSAIVKLKNDNIEKRVNVPSIDNLMENLQDNMKTGNISVTE | 0.42
49 | HMNTLLGLSNSFQDNKDLENANSISRRFISYRPRSEAELRIRLLKVFSHEIVLESVAQMYREGLLNDQRF | -3.33
50 | HMNTLTKEDIQKAIDVIPIDFKSVVILNLVEGFSYKETAEILEIPIGTVMSRLHRGRKILQKLLWEYSSSK | -1.32

Row | Sequence | soluble fraction (log2)
51 | HMNTTTTKVVSVSSLNMRSGPSTSYNIIEVLTKDTQVEVISVEDGWAKIKYNSKTGYVSNQYLSDKK | 0.0146
52 | HMNTVAKELATQATQAKKRAFLDAYAETGIIKRAAEIAGIERKSHYLWLEKDPEYVEAFKSAGEQ | 0.301
53 | HMNTVSVGNLGLSVRAVNALKQAGIDTYDKLQELSWEELLLIPKLGQVTAAEIYRFITSYKKG | -0.552
54 | HMNVAETITLGKRLFNHALTILGKKQRNISRKQLKNFLNDLGLKDSKDLYESIGTGDKNPILMAQLLLG | -0.509
55 | HMNVAVGNSKLVGVAGERAYFVNGVGAAARTLSLQVGDALPTGEKVRRIERDGVTMTGASGDVRLSVLP | 0.0813
56 | HMNVDALIGTKGIVVQPIRPFAVGQVKVNGQVWSAVGKTPETDIEQGREVKVHAIEGVKLVVTPT | 0.251
57 | HMNVDALVGMPARVTRAFVQGAGEVKLDNGETWTARLSAGVTDAEASVGQTVSVIAVRGAAVEVAPE | 0.0386
58 | HMNVDSLIGKKARVLEDIDNLNAKGQVSIDGMEWTARSEDGSEIKKDALVEVVAIEGVKAIVKQ | 0.0709
59 | HMNVEQQNQARENIKRLMEEQGLSQPKLSEKAGIAFGTLSRILRGKQDLTIQTAEKIADALGLSVYDLAE | 0.281
60 | HMNVKVSVDDIARPGLMASGRVTFADGNRGMWYVDEMGRLGIDPEVEGYQPSEADIQAFQRELQSVMES | 0.102
61 | HMNVNSQQINDLEKSIQKFFDKDIKNYLNQNLSNDRMISKNEIDKIILLYYGSDKEPTLDEIKSIFN | -0.0913
62 | HMNVNTHKTLILNSTFQPLSLATPQRALALLFSKKINVLKESDIKLRSVGQSVAIPKVAVLTYFVKA | -0.291
63 | HMNVPFGYTIKDGLLVEQPDEKAILDNILTWKKGQMTVAEIAKKTGMETWKIYGILNYWRNK | -0.875
64 | HMNVRAYKVSKESELTVEEKLEAVRGYGVADLLYVIREFEENPGKYEPEVIKLIVQQLTDKGIM | 0.199
65 | HMNVRRSRTHEKVTTYQGYDIFINKEPNQRGMFTSAPMRGDNEYSNLRGEGKSKQDAVNMTKEKIDEIAA | 0.403
66 | HMNVSVSITKELQVYINDERISSSALESTLKSKLAGIENPTIILRAEEGVPIEKAVNVMDIANRNRYKIVL | -0.522
67 | HMNVYAGTMINVVGLQVEDAASRLRGLFYSVKIVEEESQEPDGKVLRQNIAEGTKDLEAWTLVELTVSKYV | -0.872
68 | HMNVYEVKFGDTLDEIIKTYLFDIPVKKSILRQAVILANPHAFRRNNPHWMYSDRQLKLPELQDIRRAIF | -0.276
69 | HMNYGDVIEGQIMHVDRDELLVDIGSKSEGIIPAREFSTLTDEERAALSVGDHVLVFVVQAENQEGQAV | 0.0712
70 | HMNYIEWKNTFKKYLYLLPIKEEKETLAYFDEQYNKLNPKDLDNVENIFSDPIDKAAFVVAFYLEMEDEIK | -0.612
71 | HMNYIGADAAKNMAAADAQVDTANASFSGANLGEKNGLSYYQVDFTANGREYHYAIDAMTGTVIESSSAAS | 0.124
72 | HMNYNEKGEYTRTLTSGSETAVMTYRNFGETLDVALFKNGVQTDSLRLIKSEPGVLYRQSNGQFEKI | 0.0586
73 | HMNYSIVNVGFNNKSLFLRSAPGYSASRLLLPFATERAFVRETLSNGWSRVIVRGTEGYLPTEYVAD | 0.179
74 | HMNYSKQRETILKVLRSTRSHPSVNWIYENVKKEIPDVGLATVYRNLKQLEAAGEIMRIQGDFPEERWDGF | -0.911
75 | HMNYTALLNNFSENMKKRRVELSLSQKELASIVGVSVRTIQNYENKKTIPTSAVMESISIALDMGLEKMID | -1.27
